Target: Lym-1 antigen (HLA-Dr10) on Raji cells (human)
Experiment: avidity constant, Scatchard plot analysis on the target tumor cell line (Raji)

B1: Lym-1 (antibody, V domains shown)
VH: QLKESGPGLVAPSQSLSITCTISGFSLTSYGVHWVRQPPGKGLEWLVVIWSDGSTTYNSALKSRLSISKDNSKSQVFLKMNSLQTDDTAIYYCASHYGSTLAFASWGHGTLVTVSA
VL: DIQMTQSPASLSASVGETVTIICRASVNIYSYLAWYQQKQGKSPQLLVYNAKILAEGVPSRFSGSGSGTQFSLKINSLQPEDFGSYYCQHHYGTFTFGSGTKLEIK
Question: B1 was tested. Which Ka did it give?
Answer: 4.02e+08 M⁻¹
